Assay results taken from patent publication US20230365659A1 (EPSILON MOLECULAR ENGINEERING, published 2023).

B1: Bacillus subtilis-derived VHH-COVE5 (VHH)
VHH: EVQLVESGGGLVQAGGSLRLSCTASDQIFDNYNMAWFRQSPGKEREFVAALSWGDSNTGYADSVKGRFTISRDNAKNTVYLQMNSLKPEDTAVYYCYAVTWLRGDYWGQGTQVTVSS
B2: Bacillus subtilis-derived VHH-COVE2 (VHH)
VHH: AEVQLVESGGGLVQAGDSLRLSCAATRRTSSTYAMGWFRQAPGKGLEWVAAISWDGGRTYYAESVKGRFTISRDNAKNTVYLQMNSLKPEDTAVYYCYSFGGSDFLMDYWGQGTQVTVSSGGGSHHHHHH
B3: Bacillus subtilis-derived VHH-COVE9 (VHH)
VHH: EVQLVESGGGLVQPGGSLRLSCAASGTIFSTNAMSWYRQAPGKQRELVAAITSGGNTNYADSVKGRFTISRDNAKNTVYLQMNSLKPEDTAVYYCNAPGVVTGSYDVRNYWGQGTQVTVSS
B4: VHH-COVE9 (on beads in Example 26, production host not stated) (VHH)
VHH: EVQLVESGGGLVQPGGSLRLSCAASGTIFSTNAMSWYRQAPGKQRELVAAITSGGNTNYADSVKGRFTISRDNAKNTVYLQMNSLKPEDTAVYYCNAPGVVTGSYDVRNYWGQGTQVTVSS
B5: Bacillus subtilis-derived VHH-COVE7 (VHH)
VHH: EVQLVESGGGLVQAGDSLRLSCTASGRTFSSCAMGWFRQAPGKEREFVAAISRGGGSTSYADSVKGRFTISKDRARNTAYLEMNSLKPEDTAIYYCYAVFPSGGDYWGQGTQVTVSS
B6: Bacillus subtilis-derived VHH-COVE1 (VHH)
VHH: AEVQLVESGGGLVQPGGSLRLSCAASGFAFSSYPMYWVRQAPGKGLEWISFIDGEGTSTSYADSVKGRFTISRDNAKNTVYLQMNSLKPEDTAVYYCNALLRRYNYGFTFDNYWGQGTQVTVSSGGGSHHHHHH
B7: Bacillus subtilis-derived VHH-COVE6 (VHH)
VHH: EVQLVESGGGLVQAGGSLRLSCTASGRTWNIASMTWFRQAPGGKERTFVATIKWSDLATYYTDSVKGRFTISRGNSKNTVYLQMNSLKPEDTGVYFCYAITTGSPLLGGGMDFWGKGTLVTVSS
B8: Bacillus subtilis-derived VHH-COVE4 (VHH)
VHH: AEVQLVESGGDVVQPGGSLRLSCAASGFTFTTYAMTWVRQAPGEGLEAVSTISGADGSTYYADSVKGRFTISRDNANNTVYLQMNSLKPEDTAVYYCAATPWYSASHTYWGQGTQVTVSSGGGSHHHHHH
B9: Bacillus subtilis-derived VHH-COVE3 (VHH)
VHH: AEVQLVESGGGFVQAGGSLRLSCRVSAPTFMTYTMAWFRQAPGNEREFVAALSKNFVTTSYADSVKGRFTISRDNAKNTVYLQMNSLKPEDTAVYYCNVAWSDYEYLEVWGQGTLVTVSSGGGSHHHHHH
B10: Bacillus subtilis-derived VHH-COVE8 (VHH)
VHH: EVQLVESGGGLVQPGGSLTLSCAASGQTFSSYNMAWFRQSPGKEREFVATISWGGGSTGYADSVKGRFTISRDHAKNTVYLQMKDLKPEDTGAYYCYLVGLFGIQASDYWGQGTQVTVSS

Columns and labels:
[1] = target: T1, SARS-CoV-2 spike RBD variant strain (SPD-C52Hn, Acro Biosystems, N501Y) (SARS-CoV-2, UniProt P0DTC2 319-537); assay: BLI (Octet), biotinylated RBD on SA sensor, VHH as analyte, 1:1 fit
T1 construct: domain: RBD

[2] = target: T2, SARS-CoV2 spike RBD variant strain (SRD-C52H3, Acro Biosystems, E484K) (SARS-CoV-2, UniProt P0DTC2 319-537); assay: as above
T2 construct: domain: RBD

[3] = target: T3, SARS-CoV2 spike RBD variant (SRD-C52H2, Acro Biosystems, N440K) (SARS-CoV-2, UniProt P0DTC2 319-537); assay: as above
T3 construct: domain: RBD

[4] = target: T4, SARS-CoV2 spike RBD variant strain (SPD-C52Hp, Acro Biosystems, K417N, E484K, N501Y) (SARS-CoV-2, UniProt P0DTC2 319-537); assay: as above
T4 construct: domain: RBD

[5] = target: T5, SARS-CoV-2 full-length Spike Recombinant Antigen B.1.617 Mutation (Bio-Serv) (SARS-CoV-2, UniProt P0DTC2 14-1273); assay: ELISA, VHH on nickel plate, spike in solution
T5 construct: Bought

[6] = target: SARS-CoV-2 full-length Spike Recombinant Antigen B.1.351 Mutation (Bio-Serv) (SARS-CoV-2, UniProt P0DTC2 14-1273); assay: ELISA, VHH on nickel plate, spike in solution (0-500 ng/mL)
[7] = target: SARS-CoV-2 full-length Spike Recombinant Antigen B.1.1.7 Mutation (Bio-Serv) (SARS-CoV-2, UniProt P0DTC2 14-1273); assay: as above
[8] = target: SARS-CoV-2 full-length Spike Recombinant Antigen P.1 Mutation (Bio-Serv) (SARS-CoV-2, UniProt P0DTC2 14-1273); assay: as above
[9] = target: SARS-CoV-2 (2019-nCoV) spike S1-Fc recombinant protein (Sino Biological, Inc.) (SARS-CoV-2, UniProt P0DTC2 16-685)
[10] = target: T6, SARS-CoV-2 (2019-nCoV) spike RBD (L452Q, F490S) protein (His Tag) (Sino Biological, Inc.) (SARS-CoV-2, UniProt P0DTC2 319-541); assay: pull-down with VHH-immobilized beads, SDS-PAGE of the eluate
T6 construct: domain: RBD

| Binder | Kd [1] [nM] | koff [1] [s⁻¹] | kon [1] [M⁻¹ s⁻¹] | Kd [2] [nM] | koff [2] [s⁻¹] | kon [2] [M⁻¹ s⁻¹] | Kd [3] [nM] | koff [3] [s⁻¹] | kon [3] [M⁻¹ s⁻¹] | Kd [4] [nM] | koff [4] [s⁻¹] | kon [4] [M⁻¹ s⁻¹] | binding result [5] | absorbance (450 nm) [6] | absorbance (450 nm) [7] | absorbance (450 nm) [8] | binding result [7] | further results |
| --- | --- | --- | --- | --- | --- | --- | --- | --- | --- | --- | --- | --- | --- | --- | --- | --- | --- | --- |
| B1 | 11.6 | 0.00106 | 91100 | 626 | 0.0246 | 39200 | 42.4 | 0.00178 | 42100 | 306 | 0.0625 | 204000 | no binding (tested: 500 ng/mL) | 0.97 | 0.97 | 0.97 | – | – |
| B2 | 4.01 | 0.000438 | 109000 | 34.4 | 0.00365 | 106000 | 2.96 | 0.000491 | 166000 | 90.7 | 0.00529 | 58400 | no binding (tested: 500 ng/mL) | 0.97 | 0.97 | 0.97 | – | Kd [9]: 1.2 nM; koff [9]: 8.47e-05 s⁻¹; kon [9]: 70700 M⁻¹ s⁻¹ |
| B3 | 6.9 | 0.00267 | 386000 | 9.9 | 0.00307 | 310000 | 12.5 | 0.00258 | 206000 | 10.9 | 0.00159 | 146000 | no binding (tested: 500 ng/mL) | 0.97 | 0.97 | 0.97 | – | – |
| B4 | – | – | – | – | – | – | – | – | – | – | – | – | – | – | – | – | – | binding result [10]: no binding (tested: 12.5 µg/mL) |
| B5 | 24 | 0.00186 | 73300 | 80.2 | 0.00707 | 88100 | 24.2 | 0.00113 | 46600 | 93.7 | 0.00398 | 42400 | no binding (tested: 500 ng/mL) | 0.97 | 0.97 | 0.97 | – | – |
| B6 | – | – | – | – | – | – | – | – | – | – | – | – | no binding (tested: 500 ng/mL) | – | – | – | binds | – |
| B7 | – | – | – | – | – | – | – | – | – | – | – | – | no binding (tested: 500 ng/mL) | – | – | – | binds | – |
| B8 | – | – | – | – | – | – | – | – | – | – | – | – | no binding (tested: 500 ng/mL) | – | – | – | binds | – |
| B9 | – | – | – | – | – | – | 15.4 | 0.000448 | 29200 | 265 | 0.0106 | 40000 | – | 0.97 | 0.97 | 0.97 | – | Kd [9]: 0.924 nM; koff [9]: 9.75e-05 s⁻¹; kon [9]: 106000 M⁻¹ s⁻¹ |
| B10 | 28.8 | 0.00159 | 55300 | 211 | 0.0147 | 69700 | < 0.001 | < 1e-07 | 74500 | 239 | 0.0191 | 79900 | no binding (tested: 500 ng/mL) | 0.97 | 0.97 | 0.97 | – | – |
